T1: PRORP (MRPP3) (Homo sapiens, UniProt O15091 46-583)
T1 sequence: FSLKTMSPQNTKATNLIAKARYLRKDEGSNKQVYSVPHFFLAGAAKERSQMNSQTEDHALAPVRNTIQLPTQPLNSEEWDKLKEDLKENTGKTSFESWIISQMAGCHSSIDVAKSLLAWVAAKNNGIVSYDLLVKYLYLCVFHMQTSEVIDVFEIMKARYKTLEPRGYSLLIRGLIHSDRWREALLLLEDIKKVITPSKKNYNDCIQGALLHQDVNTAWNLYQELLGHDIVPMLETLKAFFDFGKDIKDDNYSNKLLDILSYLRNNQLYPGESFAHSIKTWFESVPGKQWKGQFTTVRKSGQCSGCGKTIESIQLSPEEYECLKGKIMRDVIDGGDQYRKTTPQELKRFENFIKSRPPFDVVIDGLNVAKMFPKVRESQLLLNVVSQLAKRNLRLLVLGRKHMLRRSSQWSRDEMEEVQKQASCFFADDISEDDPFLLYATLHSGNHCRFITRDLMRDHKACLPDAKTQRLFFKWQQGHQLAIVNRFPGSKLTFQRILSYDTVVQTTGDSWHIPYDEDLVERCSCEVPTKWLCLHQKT

T2: TRMT10C (MRPP1) (Homo sapiens, UniProt Q7L0Y3 40-403)
T2 sequence: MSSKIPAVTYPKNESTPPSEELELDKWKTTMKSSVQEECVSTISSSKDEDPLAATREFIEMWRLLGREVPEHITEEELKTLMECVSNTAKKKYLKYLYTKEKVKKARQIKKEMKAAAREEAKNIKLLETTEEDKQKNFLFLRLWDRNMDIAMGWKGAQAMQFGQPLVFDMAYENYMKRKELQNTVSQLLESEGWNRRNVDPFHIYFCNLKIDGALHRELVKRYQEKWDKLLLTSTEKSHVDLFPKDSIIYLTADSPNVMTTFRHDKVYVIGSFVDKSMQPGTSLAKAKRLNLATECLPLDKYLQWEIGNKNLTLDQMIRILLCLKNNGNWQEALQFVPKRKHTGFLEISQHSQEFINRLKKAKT

T3: TRMT10C (MRPP1);SDR5C1 (MRPP2, HSD17B10) (Homo sapiens;Homo sapiens, UniProt Q7L0Y3;Q99714 40-403;1-261, |)
T3 sequence 1: T2 sequence
T3 sequence 2: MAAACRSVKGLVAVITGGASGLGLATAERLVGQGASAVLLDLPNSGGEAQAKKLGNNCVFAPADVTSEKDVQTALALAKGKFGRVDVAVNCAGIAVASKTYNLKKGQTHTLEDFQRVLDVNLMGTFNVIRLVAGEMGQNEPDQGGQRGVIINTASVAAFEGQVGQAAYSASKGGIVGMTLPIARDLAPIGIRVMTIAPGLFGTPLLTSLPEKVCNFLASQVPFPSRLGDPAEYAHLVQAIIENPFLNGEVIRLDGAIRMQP

T4: SDR5C1 (MRPP2, HSD17B10) (Homo sapiens, UniProt Q99714 1-261)
T4 sequence: T3 sequence 2

B1: pre-tRNAVal, 3'-biotinylated (structured_RNA)
RNA: UGCACUUGGACGAACCAGAGUGUAGCUUAACACAAAGCACCCAACUUACACUUAGGAGAUUUCAACUUAACUUGACCGCUCUGAGCUAAACCUAGCCCCAAACCCACUCCACCUUA
modifications: splint ligation of synthetic RNA (15 nt 5' flank + tRNA nt 1-8) to transcript of 1610-1702; 3' pCp-biotin adds a C
B2: pre-tRNALys, 3'-biotinylated (structured_RNA)
RNA: ACCCCCUCUAGAGCCCACUGUAAAGCUAACUUAGCAUUAACCUUUUAAGUUAAAGAUUAAGAGAACCAACACCUCUUUACAGUGAAAUGCCCCAAC
modifications: splint ligation of synthetic RNA (15 nt 5' flank + tRNA nt 1-8) to transcript of 8303-8375; 3' pCp-biotin adds a C

How the values were obtained:
PRORP (MRPP3) [1] = biological target: T1, PRORP (MRPP3); experiment: BLI; no Mg2+; BLI (BLItz, streptavidin sensors): 50 mM Tris-Cl pH 8, 20 mM NaCl, 2 mM DTT, 20 ug/ml BSA, 0.5 U/ul RNase inhibitor, 0.05% Tween-20, with (Lys) or without 4.5 mM MgCl2, 21 C; settings: protein: recombinant; tags: C-terminal His6; label: 3' biotin (pCp-biotin); tRNA cloverleaf
TRMT10C (MRPP1) [2] = biological target: T2, TRMT10C (MRPP1); experiment: as above; settings: protein: recombinant; tags: C-terminal myc-His6; chain copies: 2; label: 3' biotin (pCp-biotin); tRNA cloverleaf
[3] = biological target: T3, TRMT10C (MRPP1);SDR5C1 (MRPP2, HSD17B10); experiment: as above; settings: protein: recombinant;recombinant; tags: C-terminal myc-His6;N-terminal His6; copies: 1;4; label: 3' biotin (pCp-biotin); tRNA cloverleaf
SDR5C1 (MRPP2, HSD17B10) [4] = biological target: T4, SDR5C1 (MRPP2, HSD17B10); experiment: BLI; no Mg2+; up to 1 uM SDR5C1; BLI (BLItz, streptavidin sensors): 50 mM Tris-Cl pH 8, 20 mM NaCl, 2 mM DTT, 20 ug/ml BSA, 0.5 U/ul RNase inhibitor, 0.05% Tween-20, with (Lys) or without 4.5 mM MgCl2, 21 C; settings: protein: recombinant; tags: N-terminal His6; chain copies: 4; label: 3' biotin (pCp-biotin); tRNA cloverleaf
PRORP (MRPP3) [5] = biological target: T1, PRORP (MRPP3); experiment: BLI; 4.5 mM Mg2+; BLI (BLItz, streptavidin sensors): 50 mM Tris-Cl pH 8, 20 mM NaCl, 2 mM DTT, 20 ug/ml BSA, 0.5 U/ul RNase inhibitor, 0.05% Tween-20, with (Lys) or without 4.5 mM MgCl2, 21 C; settings: protein: recombinant; tags: C-terminal His6; label: 3' biotin (pCp-biotin); tRNA cloverleaf
TRMT10C (MRPP1) [6] = biological target: T2, TRMT10C (MRPP1); experiment: as above; settings: protein: recombinant; tags: C-terminal myc-His6; chain copies: 2; label: 3' biotin (pCp-biotin); tRNA cloverleaf
[7] = biological target: T3, TRMT10C (MRPP1);SDR5C1 (MRPP2, HSD17B10); experiment: as above; settings: protein: recombinant;recombinant; tags: C-terminal myc-His6;N-terminal His6; copies: 1;4; label: 3' biotin (pCp-biotin); tRNA cloverleaf
SDR5C1 (MRPP2, HSD17B10) [8] = biological target: T4, SDR5C1 (MRPP2, HSD17B10); experiment: BLI; 4.5 mM Mg2+; up to 1 uM SDR5C1; BLI (BLItz, streptavidin sensors): 50 mM Tris-Cl pH 8, 20 mM NaCl, 2 mM DTT, 20 ug/ml BSA, 0.5 U/ul RNase inhibitor, 0.05% Tween-20, with (Lys) or without 4.5 mM MgCl2, 21 C; settings: protein: recombinant; tags: N-terminal His6; chain copies: 4; label: 3' biotin (pCp-biotin); tRNA cloverleaf

Binder	Kd (PRORP (MRPP3) [1]) [nM]	Kd (TRMT10C (MRPP1) [2]) [nM]	Kd [3] [nM]	binding result (SDR5C1 (MRPP2, HSD17B10) [4])	Kd (PRORP (MRPP3) [5]) [nM]	Kd (TRMT10C (MRPP1) [6]) [nM]	Kd [7] [nM]	binding result (SDR5C1 (MRPP2, HSD17B10) [8])
B1	18	20	13	no binding	–	–	–	–
B2	–	–	–	–	26	30	4	no binding
